From patent US20100137420

Columns and labels:
[1] = target: cathepsin B (from THP-1 cell lysates), P07858
recombinant cystatin C = target: T1, recombinant cystatin C
T1 chain: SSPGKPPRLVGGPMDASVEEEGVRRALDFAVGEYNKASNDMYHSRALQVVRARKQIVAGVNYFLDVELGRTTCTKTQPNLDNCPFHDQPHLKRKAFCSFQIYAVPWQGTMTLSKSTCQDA

B1: MMP-2 (protein)
chain: YNFFPRKPKWDKNQITYRIIGYTPDLDPETVDDAFARAFQVWSDVTPLRFSRIHDGEADIMINFGRWEHGDGYPFDGKDGLLAHAFAPGTGVGGDSHFDDDELWTLGEGQVVRVKYGNADGEYCKFPFLFNGKEYNSCTDTGRSDGFLWCSTTYNFEKDGKYGFCPHEALFTMGGNAEGQPCKFPFRFQGTSYDSCTTEGRTDGYRWCGTTEDYDRDKKYGFCPETAMSTVGGNSEGAPCVFPFTFLGNKYESCTSAGRSDGKMWCATTANYDDDRKWGFCPDQGYSLFLVAAHEFGHAMGLEHSQDPGALMAPIYTYTKNFRLSQDDIKGIQELYGASPDIDLGTGPTPTLGPVTPEICKQDIVFDGIAQIRGEIFFFKDRFIWRTVTPRDKPMGPLLVATFWPELPEKIDAVYEAPQEEKAVFFAGNEYWIYSASTLERGYPKPLTSLGLPPDVQRVDAAFNWSKNKKTYIFAGDKFWRYNEVKKKMDPGFPKLIADAWNAIPDNLDAVVDLQGGGHSYFFKGAYYLKLENQSLKSVKFGSIKSDWLGC
How did the “cathepsin B activity (fluorogenic Ac-Arg-Arg-AFC assay)” value [1] turn out when B1 was run?
The value was “Cathepsin D and MMP-2 alone had no effect on cathepsin B activity”.

What about the “cleavage of recombinant cystatin C” value (recombinant cystatin C) of the same protein?
The value was “MMP-2 cleaved cystatin C at three unique sites”.
